T1: LexA WT (Mycobacterium tuberculosis, UniProt P9WHR7 1-236)
T1 sequence: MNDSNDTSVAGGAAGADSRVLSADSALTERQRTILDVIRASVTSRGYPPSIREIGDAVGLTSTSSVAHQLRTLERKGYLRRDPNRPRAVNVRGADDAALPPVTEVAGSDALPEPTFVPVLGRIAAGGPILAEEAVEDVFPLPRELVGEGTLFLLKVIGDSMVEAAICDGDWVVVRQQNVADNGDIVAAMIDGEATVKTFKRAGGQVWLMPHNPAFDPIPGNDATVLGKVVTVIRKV

T2: LexAΔ24aa (Mycobacterium tuberculosis, UniProt P9WHR7 25-236, del1-24)
T2 sequence: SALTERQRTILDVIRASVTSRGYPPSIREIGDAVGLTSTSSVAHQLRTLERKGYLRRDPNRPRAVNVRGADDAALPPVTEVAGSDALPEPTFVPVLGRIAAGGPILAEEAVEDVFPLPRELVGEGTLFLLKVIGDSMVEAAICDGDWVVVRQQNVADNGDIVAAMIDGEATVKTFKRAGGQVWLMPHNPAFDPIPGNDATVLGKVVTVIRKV

T3: LexAΔ18aa (Mycobacterium tuberculosis, UniProt P9WHR7 1-236, del94-111)
T3 sequence: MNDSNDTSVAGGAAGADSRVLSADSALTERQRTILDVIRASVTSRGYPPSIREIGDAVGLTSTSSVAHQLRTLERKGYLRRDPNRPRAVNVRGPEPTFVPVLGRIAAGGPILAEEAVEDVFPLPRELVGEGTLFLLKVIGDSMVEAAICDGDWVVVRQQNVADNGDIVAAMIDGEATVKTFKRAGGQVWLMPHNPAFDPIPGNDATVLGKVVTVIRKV


Legend:
[1] = target: T1, LexA WT; assay: BLI; pH 7.5; BLI: 10 mM HEPES pH 7.5, 50 mM NaCl, 25 C (pH 4 buffer not stated), 1:1 global fit; […]; details: protein: recombinant; tags: N-term 6xHis (pET28a); chain copies: 2; label: 5' biotin on strand 1; blunt
[2] = target: T2, LexAΔ24aa; assay: BLI; pH 7.5; BLI: 10 mM HEPES pH 7.5, 50 mM NaCl, 25 C (pH 4 buffer not stated), 1:1 global fit; EMSA: 10 mM HEPES pH 7.5, 50 mM NaCl, 30 min on ice, 3.5 nM DNA; details: protein: recombinant; tags: N-term 6xHis (pET28a); chain copies: 2; label: 5' biotin on strand 1; blunt
[3] = target: T3, LexAΔ18aa; assay: as above; details: protein: recombinant; tags: 6xHis; chain copies: 2; label: 5' biotin on strand 1; blunt
[4] = target: T3, LexAΔ18aa; assay: EMSA; 128 nM protein; BLI: 10 mM HEPES pH 7.5, 50 mM NaCl, 25 C (pH 4 buffer not stated), 1:1 global fit; EMSA: 10 mM HEPES pH 7.5, 50 mM NaCl, 30 min on ice, 3.5 nM DNA; details: protein: recombinant; tags: 6xHis; chain copies: 2; label: 32P end label, no biotin; blunt

Binder	Kd [1] [nM]	Kd [2] [nM]	Kd [3] [nM]	binding result [4]
dnaE2_44mer SOS box, biotinylated (dsDNA) DNA 1: ACAACTGCGCTGTATCGAACAATTGTTCGATATACTGTGGAATG DNA 2: CATTCCACAGTATATCGAACAATTGTTCGATACAGCGCAGTTGT	2.16 ± 0.01	4.94 ± 0.03	–	–
rv3074_44mer SOS box, biotinylated (dsDNA) DNA 1: GCAGGCTGCTATTCTCGAACACATGTTCGAGACATTGACCGCGA DNA 2: TCGCGGTCAATGTCTCGAACATGTGTTCGAGAATAGCAGCCTGC	3.86 ± 0.03	2.75 ± 0.04	43.5 ± 0.24	–
recA_44mer SOS box, biotinylated (dsDNA) DNA 1: GTGTCACACTTGAATCGAACAGGTGTTCGGCTACTGTGGTGATC DNA 2: GATCACCACAGTAGCCGAACACCTGTTCGATTCAAGTGTGACAC	3.63 ± 0.02	1.67 ± 0.02	32.55 ± 0.22	–
lexA_44mer SOS box, biotinylated (dsDNA) DNA 1: CCGGAACACGCCTGTCGAACACATGTTTGATTCTTGGTGCGAAT DNA 2: ATTCGCACCAAGAATCAAACATGTGTTCGACAGGCGTGTTCCGG	0.98 ± 0.01	2.36 ± 0.02	34.53 ± 0.25	–
dnaE2 44mer SOS box, 32P end-labeled (dsDNA) DNA 1: ACAACTGCGCTGTATCGAACAATTGTTCGATATACTGTGGAATG DNA 2: CATTCCACAGTATATCGAACAATTGTTCGATACAGCGCAGTTGT	–	–	–	binds

Source: publication PMC8607333, “Real-time kinetic studies of Mycobacterium tuberculosis LexA–DNA interaction” (Bioscience Reports, 2021)
